Data reported in patent US10494423B2, “Maytansinoid derivatives with peptide linker and conjugates thereof” (priority 2011, dated 2019).

Target: T1, cathepsin B (Bos taurus, UniProt P07688)
T1 construct: cathepsin B (bovine spleen; EMD Biosciences); purchased EMD Biosciences; host or cells: bovine spleen (tissue-derived enzyme)
Experiment: In vitro cleavage of conjugate by cathepsin B
Type: biochemical, bovine
Details: 4.6 μM conjugate, 0.9 μM cathepsin B, pH 6.0, 37° C., 0-26 h
Protocol: huC242-3b conjugate (4.6 μM) was incubated with 0.9 μM cathepsin B (bovine spleen; EMD Biosciences) in pH 6.0 buffer containing 0.6 mM CaCl2/MgCl2 and 2 mM DTT (dithiothreitol) at 37° C. 100 μl aliquots were taken at various time points (0, 1, 3, 8, 17, and 26 h) and free maytansinoids were quantified using a mixed-mode chromatography method (Fleming, et al, Analytical Biochemistry, 2005, 340, 272). Briefly, a HISEP shielded hydrophobic phase column (5 μm particle size, 4.6×250 mm length, Supelco, Bellefonte, Pa., USA) was used for analyzing Ab-DM1 conjugates. Detection was at 252 and 280 nm (extracted from PDA spectra). The flow rate was 0.7 ml/min. Mobile phase A consisted of 100 mM ammonium acetate (pH 7.0). Mobile phase B was 100% acetonitrile. The column was equilibrated at 25% B followed by a linear gradient over 25 min to 40% B after sample injection. […] Synthesized compound 5 had the same retention time and mass spectrum as this metabolite.

B1: huC242-3b: huC242 antibody conjugated via SMCC linker to compound 2; 3.3 maytansinoids per antibody (conjugate, chains of the INN, looked up)
VH: QVQLVQSGAEVKKPGETVKISCKASDYTFTYYGMNWVKQAPGQGLKWMGWIDTTTGEPTYAQKFQGRIAFSLETSASTAYLQIKSLKSEDTATYFCARRGPYNWYFDVWGQGTTVTVSS
VL: DIVMTQSPLSVPVTPGEPVSISCRSSKSLLHSNGNTYLYWFLQRPGQSPQLLIYRMSNLVSGVPDRFSGSGSGTAFTLRISRVEAEDVGVYYCLQHLEYPFTFGPGTKLELK
modifications: SMCC-linked maytansinoid compound 2, DAR 3.3
notes: huC242 antibody conjugated via SMCC linker to compound 2; 3.3 maytansinoids per antibody
With B1 the “released metabolite on cathepsin B cleavage” value was “sole released metabolite 5 was detected”.
